Assay results as given in patent publication US9958461B2, “Detection of protein to protein interactions” (THE GOVERNING COUNCIL OF THE UNIVERSITY OF TORONTO, priority 2013, dated 2018).

Legend:
EGFR-L858R = molecular target: T1, EGFR-L858R (Homo sapiens, UniProt P00533, L858R); experiment: MaMTH EGFR-interactor screen, lentiviral preys against EGFR-L858R bait (interaction score); assay type: cell-based; conditions: MaMTH interaction score of prey with EGFR-L858R bait
T1 construct: with the advantage of testing full-length integral membrane proteins; (GGGGS)2 linker-Cub (human ubiquitin aa 35-76)-GAL4(1-147)-mNFkB(364-550) (C); expressed in transfected cells
Experimental: (§1) After lentivirus harvest, target cells (stable 5×GAL4UAS-luciferase reporter-HEK293T cells) were infected at a multiplicity of infection (MOI) of around 0.3-0.4 to ensure single copy integration per cell. Cells were selected in puromycin for at least 48 h and transfected with either EGFR-wildtype or EGFR-L858R baits in triplicates. 24 h after transfection, cells were lysed and luciferase assays performed. On each set of interaction assays, various negative controls were included. To calculate a MaMTH-interaction scores, negative controls were averaged and the fold-change of luciferase activity compared to the averaged controls was calculated and defined as the interaction score.
(§2) Each set of experiments contains a defined set of negative controls in at least three replicates. Negative controls were chosen as such that there is a range of controls showing high-background luciferase activity (normally cytosolic proteins: Fabp5, Pex19) as well as medium-background luciferase activity (membrane-bound interactors: Pex7, GABBR2). Negative controls were averaged and the fold-change of luciferase activity was calculated. Using this method, we have a stringent cut-off and chose an interaction score >1 to be interacting proteins.
(§3) Our cut-off of 1 is based on fold-change difference in luciferase activity over averaged negative controls. Negative controls include cytosolic preys (which tend to promiscuously bind to many proteins), plasma membrane- and peroxisomal-prey proteins. In general, we chose stringent conditions by testing preys that tend to have high luciferase background with any bait tested, in order to generate high-confidence interaction data. […] Phosphorylated tyrosine residues on the receptor are typically docking sites for downstream cytoplasmic targets and recognized through SH2 or PTB domains^43.

EGFR-Wt [1] = molecular target: T2, EGFR-Wt (Homo sapiens, UniProt P00533); experiment: MaMTH EGFR-interactor screen, lentiviral preys against EGFR-wildtype bait (interaction score); assay type: cell-based; conditions: MaMTH interaction score of prey with EGFR-Wt bait, mean
T2 construct: with the advantage of testing full-length integral membrane proteins; (GGGGS)2 linker-Cub (human ubiquitin aa 35-76)-GAL4(1-147)-mNFkB(364-550) (C); expressed in transfected cells
Experimental: as §1, §2, §3

EGFR-Wt [2] = experiment: as above; assay type: cell-based, human; conditions: ratio of EGFR-Wt mean to EGFR-L858R mean interaction score
Experimental: as §1, §2, §3

EGFR-ex19del = experiment: Western blot of EGFR-ex19del bait phosphorylation after erlotinib (anti-phospho-EGFR); conditions: 0, 250 or 500 nM Erlotinib, 20 h, serum-containing media
From the text: (a) Left panel: Relative luciferase activity of stable 5×GAL4UAS-HEK293T luciferase reporter cells co-transfected with various oncogenic ErbB baits and Shc1 prey. […] (b) Luciferase activity of sable 5×GAL4UAS-HEK293T luciferase reporter cells co-transfected with EGFR-Wt, EGFR-L858R or EGFR-D855A-kinase dead baits and Shc1 adaptor prey. (c)-(d) Western Blot showing expression of various receptors using anti-V5 antibodies and phosphor-tyrosine-specific antibodies. […] (h) Western Blot analysis of EGFR-Wt, EGFR-L858R, EGFR-exon19de and EGFR-L858R/T790A baits transfected into stable5×GAL4UAS-luciferase HEK293T reporter cells in serum-containing media.
Western blot analysis was performed using standard protocols. Briefly, cells were either directly harvested in 2×sample buffer or harvested in 1×reporter lysis buffer (Promega) containing protease inhibitors (Complete-EDTA, Roche) and 2×sample buffer was added after freezing the cells at −80° C. For phospho-specific antibodies, cells were lysed in Ripa buffer containing Na-orthovanadate, PMSF and protease inhibitor and 2×SB was added and samples were immediately boiled at 95° C. for 5 min and proceeded for Western Blot analysis. […] Transferred samples were immunoblotted with primary antibodies, followed by incubation with HRP-coupled secondary antibodies, and detection was performed using GE-Healthcare enhanced luminescence. […]

ErbB4/Shc1 interaction = molecular target: T3, ErbB4/Shc1 interaction (Homo sapiens, UniProt Q15303); experiment: MaMTH luciferase reporter assay, ErbB4 bait / Shc1 prey with TKI-PD158780; assay type: cell-based; conditions: presence/absence of TKI-PD158780
T3 construct: with the advantage of testing full-length integral membrane proteins; (GGGGS)2 linker-Cub (human ubiquitin aa 35-76)-transcription factor (GAL4-mNFkB or mLexA-VP16; expressed in transfected cells; HEK293T reporter lines are used throughout)
Experimental: FIG. 7: (a) Graph illustrating relative lucifease activity of serum stimulated PPIs. Stable 5×GAL4UAS-luciferase reporter cell lines were co-transfected with ErbB2 bait and preys. Luciferase activity was measured 24 h following transfection in the absence/presence of serum. […] The plotted values represent relative-luciferase signals calculated as fold-change increase above averaged negative controls. (b) Graph illustrating relative luciferase activity of drug-inhibited protein-protein interactions. Following transfection, ErbB4 interaction with either Shc1 or non-interacting Pex13 was measured in presence/absence of non-specfic TKI-PD158780. Plotted values represent relative luciferase signals calculated as fold-change increase above bait only controls.
We then sought to more specifically focus on the ErbB subfamily of receptor tyrosine kinases (RTK) to investigate ligand-dependent and drug-inhibited interactions. The ErbB family consists of 4 closely related receptors: EGFR, ErbB2, ErbB3, and ErbB4. Elucidation of cell signaling via all four ErbB receptors is of great therapeutic interest since they are frequently found mutated or overexpressed in several cancer. […]

T3 sequence (Q15303 26-1308): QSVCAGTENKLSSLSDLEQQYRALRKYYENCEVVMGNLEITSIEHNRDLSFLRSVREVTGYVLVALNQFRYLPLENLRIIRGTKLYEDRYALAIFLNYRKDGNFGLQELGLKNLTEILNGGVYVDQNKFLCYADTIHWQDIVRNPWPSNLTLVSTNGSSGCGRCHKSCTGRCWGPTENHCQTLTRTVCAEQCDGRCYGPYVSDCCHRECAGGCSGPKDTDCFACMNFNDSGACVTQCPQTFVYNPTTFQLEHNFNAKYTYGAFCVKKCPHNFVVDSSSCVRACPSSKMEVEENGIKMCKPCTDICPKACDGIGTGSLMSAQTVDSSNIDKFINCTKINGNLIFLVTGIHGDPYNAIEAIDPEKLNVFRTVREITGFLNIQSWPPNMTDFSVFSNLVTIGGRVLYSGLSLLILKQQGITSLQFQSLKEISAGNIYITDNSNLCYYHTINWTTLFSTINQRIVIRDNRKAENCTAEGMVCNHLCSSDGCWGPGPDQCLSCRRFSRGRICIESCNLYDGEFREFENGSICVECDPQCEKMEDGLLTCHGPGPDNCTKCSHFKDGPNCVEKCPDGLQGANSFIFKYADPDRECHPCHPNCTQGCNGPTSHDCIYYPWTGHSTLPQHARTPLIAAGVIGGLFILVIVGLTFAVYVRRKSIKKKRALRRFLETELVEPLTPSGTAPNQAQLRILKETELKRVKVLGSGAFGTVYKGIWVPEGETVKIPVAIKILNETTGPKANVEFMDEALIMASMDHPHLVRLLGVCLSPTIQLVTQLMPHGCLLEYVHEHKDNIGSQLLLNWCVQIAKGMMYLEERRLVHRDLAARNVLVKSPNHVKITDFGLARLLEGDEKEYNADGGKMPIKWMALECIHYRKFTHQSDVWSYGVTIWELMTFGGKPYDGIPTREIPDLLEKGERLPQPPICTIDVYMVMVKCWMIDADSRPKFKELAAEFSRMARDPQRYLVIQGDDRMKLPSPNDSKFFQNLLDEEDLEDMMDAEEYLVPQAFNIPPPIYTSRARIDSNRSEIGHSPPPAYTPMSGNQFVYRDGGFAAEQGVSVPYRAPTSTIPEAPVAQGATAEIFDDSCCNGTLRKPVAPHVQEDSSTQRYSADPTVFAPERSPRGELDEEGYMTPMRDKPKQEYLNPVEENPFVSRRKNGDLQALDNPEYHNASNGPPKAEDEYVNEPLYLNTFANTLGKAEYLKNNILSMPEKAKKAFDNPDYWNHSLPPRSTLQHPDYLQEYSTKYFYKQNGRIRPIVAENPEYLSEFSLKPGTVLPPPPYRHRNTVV

Row | Compound | EGFR-L858R mean (EGFR-L858R) | EGFR-Wt mean (EGFR-Wt [1]) | Wt/L858R (EGFR-Wt [2]) | Receptor phosphorylation upon Erlotinib treatment (Western blot) (EGFR-ex19del) | Effect on Shc1-adaptor protein binding to ErbB4 (ErbB4/Shc1 interaction)
1 | ITGB2 | 0.83 | 2.62 | 3.16 |  | 
2 | S100A4 | 4.46 | 1.72 | 0.39 |  | 
3 | NTRK2 | 0.97 | 1.57 | 1.61 |  | 
4 | PIK3C2B | 4.30 | 1.23 | 0.29 |  | 
5 | SH2B1 | 3.76 | 2.99 | 0.79 |  | 
6 | YWHAB | 10.44 | 7.39 | 0.71 |  | 
7 | ITSN2 | 0.60 | 2.09 | 3.50 |  | 
8 | CD3E | 0.76 | 1.39 | 1.83 |  | 
9 | AKT1 | 3.11 | 4.12 | 1.32 |  | 
10 | C#Cc1cccc(Nc2ncnc3cc(OCCOC)c(OCCOC)cc23)c1 [Erlotinib] |  |  |  | sensitive to Erlotinib | 
11 | Rgs4 | 1.39 | 0.58 | 0.41 |  | 
12 | STUB1 | 7.04 | 10.28 | 1.46 |  | 
13 | RELA | 1.18 | 1.27 | 1.08 |  | 
14 | HSPA8 | 39.20 | 25.00 | 0.64 |  | 
15 | HSPA1A | 19.20 | 12.77 | 0.67 |  | 
16 | ASAP2 | 0.97 | 1.77 | 1.81 |  | 
17 | FGR | 4.99 | 2.62 | 0.52 |  | 
18 | YWHAQ | 11.96 | 8.19 | 0.69 |  | 
19 | PIM1 | 1.51 | 1.91 | 1.27 |  | 

Row | Compound | EGFR-L858R mean (EGFR-L858R) | EGFR-Wt mean (EGFR-Wt [1]) | Wt/L858R (EGFR-Wt [2]) | Receptor phosphorylation upon Erlotinib treatment (Western blot) (EGFR-ex19del) | Effect on Shc1-adaptor protein binding to ErbB4 (ErbB4/Shc1 interaction)
20 | PRKCA | 7.70 | 11.13 | 1.45 |  | 
21 | BLK | 8.25 | 4.51 | 0.55 |  | 
22 | HCK | 3.96 | 3.94 | 1.00 |  | 
23 | HDAC6 | 14.90 | 24.86 | 1.67 |  | 
24 | IKBKG | 6.55 | 8.28 | 1.26 |  | 
25 | YWHAZ | 13.94 | 7.58 | 0.54 |  | 
26 | FRK | 5.36 | 2.84 | 0.53 |  | 
27 | SFN | 14.70 | 5.60 | 0.38 |  | 
28 | Gapdh | 3.79 | 3.44 | 0.91 |  | 
29 | APP | 2.18 | 0.93 | 0.43 |  | 
30 | CD33 | 1.24 | 0.37 | 0.30 |  | 
31 | Grb2 |  |  | 0.28 |  | 
32 | NR3C1 | 2.59 | 3.21 | 1.24 |  | 
33 | Hsp90aa1 | 97.06 | 74.20 | 0.76 |  | 
34 | ARRB1 | 6.57 | 2.72 | 0.41 |  | 
35 | YWHAG | 1.42 | 1.32 | 0.93 |  | 
36 | STAT2 | 3.03 | 0.84 | 0.28 |  | 
37 | SOCS3 | 9.83 | 1.59 | 0.16 |  | 
38 | MUC1 | 4.18 | 1.09 | 0.26 |  | 

Row | Compound | EGFR-L858R mean (EGFR-L858R) | EGFR-Wt mean (EGFR-Wt [1]) | Wt/L858R (EGFR-Wt [2]) | Receptor phosphorylation upon Erlotinib treatment (Western blot) (EGFR-ex19del) | Effect on Shc1-adaptor protein binding to ErbB4 (ErbB4/Shc1 interaction)
39 | ABL1 | 0.50 | 1.89 | 3.76 |  | 
40 | TLR2 | 1.69 | 0.58 | 0.34 |  | 
41 | MAP4K1 | 1.76 | 1.51 | 0.86 |  | 
42 | GAB2 | 1.27 | 0.97 | 0.76 |  | 
43 | EZR | 5.00 | 8.30 | 1.66 |  | 
44 | DOK6 | 1.32 | 1.22 | 0.92 |  | 
45 | PIK3R3 | 2.40 | 1.55 | 0.64 |  | 
46 | PTPN6 | 1.43 | 1.51 | 1.05 |  | 
47 | NCK2 | 4.87 | 4.35 | 0.89 |  | 
48 | TRAF2 | 3.47 | 7.28 | 2.10 |  | 
49 | HSP90AB1 | 14.81 | 27.58 | 1.86 |  | 
50 | CNc1cc2c(Nc3cccc(Br)c3)ncnc2cn1 [TKI-PD158780] |  |  |  |  | reduced Shc1-adaptor protein binding
51 | STAT3 | 4.20 | 7.35 | 1.75 |  | 
52 | MAPK9 | 2.83 | 1.48 | 0.52 |  | 
53 | TGFA | 1.59 | 2.52 | 1.59 |  | 
54 | FASLG | 1.15 | 0.85 | 0.74 |  | 
55 | YES1 | 1.23 | 1.91 | 1.55 |  | 
56 | PTPN1 | 55.90 | 44.56 | 0.80 |  | 
57 | PIK3R2 | 3.25 | 1.17 | 0.36 |  | 
